Measurements as given in patent US20220396632A1 (VERSEAU THERAPEUTICS, published 2022).

Tests used:
[1] = biological target: T1, Biotin sY51 PSGL-1(42-62) peptide (human, sulfotyrosine at Y51; C-terminal Lys-biotin); assay: ELISA, plate-bound peptide
T1 construct: also called Y51(SO3) PSGL-1(42-62)
T1 peptide: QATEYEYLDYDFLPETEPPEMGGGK

[2] = biological target: T2, 42-80 (C-terminal Lys-biotin); assay: ELISA, streptavidin-immobilized biotin peptide, 10 nM mAb [cont.]
T2 construct: also called Biotin PSGL-1(42-80) peptide
T2 peptide: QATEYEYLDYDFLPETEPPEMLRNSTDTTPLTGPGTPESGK
Procedure: (§1) A typical ELISA experiment involved binding of a single concentration or serially diluted mAb in assay buffer (3% BSA in PBS containing 0.05% Tween®20, pH 7.4) onto BSA blocked high binding microtiter plate half-wells (Corning Cat. #3690), which contained PSGL-1 protein or streptavidin-immobilized biotin peptide. After incubation for 45 min. at 37° C., the plate was washed 3 times with wash buffer (PBS containing 0.05% Tween®20, pH 7.4), and an appropriate HRP-conjugated secondary antibody added (25 ul/well) (HRP goat anti-mouse or anti-human IgG). After 45 min. incubation at 37° C., the plate was washed and antibody bound to plate-immobilized target was determined at A450 nm using HRP substrate (3,3′5,5′-tetramethylbenzidine (TMB)). For each antibody, duplicate values were averaged and assay background subtracted.

[3] = biological target: T3, Biotin Y46,48,51(SO3) PSGL-1(42-62) peptide (human, sulfotyrosine at Y46, Y48 and Y51; C-terminal Lys-biotin); assay: capture ELISA; against parent 18F02
T3 construct: also called fully sulfated N-terminal PSGL-1 peptide
T3 peptide: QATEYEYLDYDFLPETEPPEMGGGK
Procedure: A typical ELISA for N-terminal PSGL-1 reactive humanized mAbs binding to Y_{46,48,51}(SO₃) PSGL-1₍₄₂₋₆₂₎ involved coating high binding half-well plates (Corning Cat. #3690) with 3 ug/mL/25 ul per well of the mAbs or with an isotype hG4 control in PBS, pH 7.4, overnight at 4° C. […] Biotinylated Y_{46,48,51}(SO₃) PSGL-1₍₄₂₋₆₂₎ was added (25 ul per well) in duplicate at 2.8 uM in assay buffer (blocking buffer containing 0.05% tween 20) and serially diluted into test and control (just blocked) wells, and the plate incubated for 45 min at 37° C. The plate was washed ×3 and an appropriate HRP-conjugated streptavidin was added (25 ul per well; Jackson Immunoresearch, Cat. #016-030-084) and the plate was incubated for 45 min at 37° C. […] For each antibody, an EC50 value was determined from sigmoidal fitted peptide titration curve.

[4] = biological target: T4, P59A (C-terminal Lys-biotin); assay: alanine-scan ELISA, streptavidin-immobilized biotin peptide [cont.]
T4 construct: alanine-scan peptide; also called Biotin PSGL-1(42-62) P59A peptide; 59P
T4 peptide: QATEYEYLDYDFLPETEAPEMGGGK

[5] = biological target: T5, Q42A (C-terminal Lys-biotin); assay: as above
T5 construct: alanine-scan peptide; also called Biotin PSGL-1(42-62) Q42A peptide; 42Q
T5 peptide: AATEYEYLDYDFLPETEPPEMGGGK

[6] = biological target: T6, E47A (C-terminal Lys-biotin); assay: as above
T6 construct: alanine-scan peptide; also called Biotin PSGL-1(42-62) E47A peptide; 47E
T6 peptide: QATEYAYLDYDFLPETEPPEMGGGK

[7] = biological target: T7, E61A (C-terminal Lys-biotin); assay: as above
T7 construct: alanine-scan peptide; also called Biotin PSGL-1(42-62) E61A peptide; 61E
T7 peptide: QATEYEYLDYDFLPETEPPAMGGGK

[8] = biological target: T8, Biotin PSGL-1(42-62) Y46A peptide (C-terminal Lys-biotin); assay: as above
T8 peptide: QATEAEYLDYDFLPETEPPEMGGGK

[9] = biological target: T9, Y48A (C-terminal Lys-biotin); assay: as above
T9 construct: alanine-scan peptide; also called Biotin PSGL-1(42-62) Y48A peptide; 48Y
T9 peptide: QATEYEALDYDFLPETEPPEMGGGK

[10] = biological target: T10, T57A (C-terminal Lys-biotin); assay: as above
T10 construct: alanine-scan peptide; also called Biotin PSGL-1(42-62) T57A peptide; 57T
T10 peptide: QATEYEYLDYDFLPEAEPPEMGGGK

[11] = biological target: T11, M62A (C-terminal Lys-biotin); assay: as above
T11 construct: alanine-scan peptide; also called Biotin PSGL-1(42-62) M62A peptide; 62M
T11 peptide: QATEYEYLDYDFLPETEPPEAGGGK

[12] = biological target: T12, Biotin PSGL-1(42-62) E45A peptide (C-terminal Lys-biotin); assay: as above
T12 peptide: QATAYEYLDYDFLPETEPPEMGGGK

[13] = biological target: T13, Biotin PSGL-1(105-125) peptide (human, N-terminal acetyl; C-terminal Lys-biotin); assay: ELISA, streptavidin-bound peptide
T13 peptide: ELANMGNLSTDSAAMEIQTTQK
Procedure: as §1

[14] = biological target: T13, Biotin PSGL-1(105-125) peptide; assay: ELISA, plate-bound peptide or protein
Procedure: as §1

B1: 20I15 (antibody, V domains shown)
VH: EVKLVESGGGLVQPGGSLSLSCAASGFTFTDYYMSWVRQPPGKALEWLGFIRNKANGYTTEYSASVKGRFTISRDNSQSILYLQMNALRAEDSATYYCARTYLRRGYFDVWGTGTTVTVSS
VL: DIVLTQSPASLAVSLGQRATISCRASKSVSTSGYSYMHWFQQKPGQPPKLLIYLASNLESGVPARFSGSGSGTDFTLNIHPVEEEDAATYYCQHSRELPLTFGAGTKLELK
notes: From mouse immunisation; only variable domains given; also called 20115
fold weaker binding than to the peptide with all 3 sulfated tyrosines [1]: ~300 fold

B2: 18F02 (antibody, V domains shown)
VH: QVQLQQPGAELVKPGASVKLSCKASGYTFTSYWMHWVKQRPGQGLEWIGMIHPNSGRTNYNEKFKSKATLTVDKSSSTAYMQLSSLTSEDSAVYYCARSDYWGQGTTLTVSS
VL: DIVMTQAAFSNPVTLGTSASISCRSSKSLLHSDGITYLYWFLQRPGQSPQLLIYRMSNLASGVPDRFSGSGSGTDFTLRISRVEAEDVGVYYCAQMLEFPRTFGGGTKLEIK
notes: From mouse immunisation; only variable domains given
binding result [2]: binds | N-term peptide EC50 (normalized) [3]: 1 fold

B3: 9F9 (antibody, V domains shown)
VH: EVQLVETGGGLVQPKGSLKLSCAASGFTFNTNAMNWVRQAPGKGLEWVARIRSKSNNYATYYADSVKDRFTISRDDTQSMIYLQMNNLKTEDTGMYYCVRGGSYWYFDVWGAGTTVTVSS
VL: DVLMTQTPLSLPVSLGDQASISCRSSQSIVNSNGNTYLEWYLQKPGQSPKLLIYKVSNRFSGVPDRFSGSGSGTDFTLKISRVEAEDLGVYYCFQGSHVPWTFGGGTKLEIK
notes: Control anti-PSGL-1 mAb, recombinant; only variable domains given; also called 9F6
binding result [4]: binds | binding result [5]: binds | binding result [6]: binds | binding result [7]: binds | binding result [8]: binds | binding result [9]: binds | binding result [10]: binds | binding result [11]: binds | binding result [12]: binds

B4: 16E17 (antibody, V domains shown)
VH: QIQLVQSGPELKKPGETVKISCKASGYAFTTYGMSWVKQAPGKGLKWMGWINTYSGVPKYADDFKGRFAFSLETSASTAYLHINNLKNEDTATYFCGRHYYGSSYFDYWGQGTTLTVSS
VL: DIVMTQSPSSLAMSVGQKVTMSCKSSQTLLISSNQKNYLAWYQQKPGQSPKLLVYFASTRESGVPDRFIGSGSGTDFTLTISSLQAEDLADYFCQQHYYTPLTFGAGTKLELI
notes: as for B2
fold weaker binding than to PSGL-1(ECD)-hFc1 [13]: ~20 fold | EC50 [14]: 26.7 nM
